As usually defined, the stoichiometry N is the number of molecules, sites or subunits per partner or assembly.

The experiment has as its target C. jejuni outer membrane channel CmeC (C. jejuni) (UniProt Q8RTE3). The experiment is described as follows: crystal structure.

Consider “C. jejuni outer membrane channel CmeC (from UniProt Q8RTE3 1-492) (natural protein)”, for which the stoichiometry N is 3.
